In test [1] the target is PptA, phosin (polyP-targeting protein) from Streptomyces chartreusis (Streptomyces chartreusis). The test is described as follows: SEC. In general terms: In gel filtration, larger molecules generally elute earlier.
The target is the same in test [2]. The test is described as follows: SAXS.

For 1 substance, stoichiometry N results are on record in article PMC6771595.

The term stoichiometry N denotes the number of molecules, sites or subunits per partner or assembly. Consider “PptA, phosin (polyP-targeting protein) from Streptomyces chartreusis (natural protein)”, for which the stoichiometry N in test [1] and in test [2] was 2 in each case.
